Assays:
[1] = target: CH0505_CON D7gp120/293i; test: ELISA
[2] = target: T1, CH505w020.14D8gp120; test: ELISA
T1 construct: also called CH505w20.14 gp120

[3] = target: T2, CH505w030.20D8gp120/293F; test: ELISA
T2 construct: also called CH505w30.20 gp120

[4] = target: T3, CH505.w30.12D8gp120; test: ELISA
T3 construct: also called CH505w30.12 gp120

[5] = target: CH505w136.B18D8gp120; test: ELISA
[6] = target: CH505.M5D8gp120293F; test: ELISA
[7] = target: CH505.M10D8gp120; test: ELISA
[8] = target: CH505.M11D8gp120/293F; test: ELISA
[9] = target: CH505.M19D8gp120; test: ELISA
[10] = target: CH505.M21D8gp120/293F; test: ELISA
[11] = target: CH505.M9D8gp120/293F; test: ELISA
[12] = target: CH505.M7D8gp120/293F; test: ELISA
[13] = target: T4, CH505.TF mutant gp120 M6 (HIV-1); test: ELISA
T4 construct: domain: gp120

[14] = target: T5, CH505.TF mutant gp120 M8 (HIV-1); test: ELISA
T5 construct: domain: gp120

[15] = target: T6, CH505.TF mutant gp120 M20 (HIV-1); test: ELISA
T6 construct: domain: gp120

[16] = target: T7, SSA; test: AtheNA, Ab 25 ug/ml
T7 construct: also called SSA (Ro)

[17] = target: T8, Sm (Smith antigen); test: AtheNA, Ab 25 ug/ml
T8 construct: Protein complex

[18] = target: T9, RNP (ribonucleoprotein); test: AtheNA, Ab 25 ug/ml
T9 construct: Protein-RNA complex

[19] = target: T10, Scl-70 (UniProt P11387 1-765); test: AtheNA, Ab 25 ug/ml
T10 sequence: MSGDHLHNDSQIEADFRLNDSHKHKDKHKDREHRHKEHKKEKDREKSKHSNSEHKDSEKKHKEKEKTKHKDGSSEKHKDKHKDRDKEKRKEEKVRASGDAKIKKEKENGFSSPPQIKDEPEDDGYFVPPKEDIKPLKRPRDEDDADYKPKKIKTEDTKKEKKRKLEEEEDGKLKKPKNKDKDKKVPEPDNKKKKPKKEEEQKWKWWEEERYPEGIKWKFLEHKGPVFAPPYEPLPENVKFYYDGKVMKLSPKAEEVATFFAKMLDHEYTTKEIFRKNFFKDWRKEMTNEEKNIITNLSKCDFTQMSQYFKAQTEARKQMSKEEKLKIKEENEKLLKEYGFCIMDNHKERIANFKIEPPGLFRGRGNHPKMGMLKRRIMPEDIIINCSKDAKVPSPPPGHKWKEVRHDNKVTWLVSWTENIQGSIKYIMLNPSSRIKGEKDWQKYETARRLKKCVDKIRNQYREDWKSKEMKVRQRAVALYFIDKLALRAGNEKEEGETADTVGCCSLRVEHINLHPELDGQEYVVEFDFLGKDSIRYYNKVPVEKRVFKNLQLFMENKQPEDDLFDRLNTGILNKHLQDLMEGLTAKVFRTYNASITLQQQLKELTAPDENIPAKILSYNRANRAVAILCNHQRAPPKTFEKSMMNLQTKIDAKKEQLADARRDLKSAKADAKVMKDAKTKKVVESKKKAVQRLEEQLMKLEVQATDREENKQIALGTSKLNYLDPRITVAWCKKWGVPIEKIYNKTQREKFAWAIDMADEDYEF

[20] = target: T11, Histones; test: AtheNA, Ab 25 ug/ml
T11 construct: Mixture of proteins

[21] = target: T7, SSA; test: AtheNA, Ab 50 ug/ml
[22] = target: T8, Sm (Smith antigen); test: AtheNA, Ab 50 ug/ml
[23] = target: T11, Histones; test: AtheNA, Ab 50 ug/ml
[24] = target: T7, SSA; test: AtheNA, Ab 12.5 ug/ml
[25] = target: T8, Sm (Smith antigen); test: AtheNA, Ab 12.5 ug/ml
[26] = target: T9, RNP (ribonucleoprotein); test: AtheNA, Ab 12.5 ug/ml
[27] = target: T10, Scl-70; test: AtheNA, Ab 12.5 ug/ml
[28] = target: T11, Histones; test: AtheNA, Ab 12.5 ug/ml
[29] = target: T7, SSA; test: AtheNA, Ab 6.25 ug/ml
[30] = target: T8, Sm (Smith antigen); test: AtheNA, Ab 6.25 ug/ml
[31] = target: T9, RNP (ribonucleoprotein); test: AtheNA, Ab 6.25 ug/ml
[32] = target: T10, Scl-70; test: AtheNA, Ab 6.25 ug/ml
[33] = target: T11, Histones; test: AtheNA, Ab 6.25 ug/ml
[34] = target: T12, HIV-1 CH505 transmitted/founder gp120 Env (HIV-1); test: competition ELISA, blocking of CH106 binding to gp120
T12 construct: domain: gp120; also called CH505.TF gp120; CH505 TF gp120 Env

[35] = target: T7, SSA; test: AtheNA, Ab 25 ug/ml; remark: listed apart in the source
Text: (§1) AtheNA Multi-Lyte ANA Plus Test System is one such assay. This is luminex-based assay, which is also used to screen patient sera.

[36] = target: T8, Sm (Smith antigen); test: AtheNA, Ab 25 ug/ml; remark: listed apart in the source
Text: as §1

[37] = target: T9, RNP (ribonucleoprotein); test: AtheNA, Ab 25 ug/ml; remark: listed apart in the source
Text: as §1

[38] = target: T13, Centromere B (UniProt P07199 1-599); test: AtheNA, Ab 25 ug/ml
T13 construct: also called Cent B
T13 sequence: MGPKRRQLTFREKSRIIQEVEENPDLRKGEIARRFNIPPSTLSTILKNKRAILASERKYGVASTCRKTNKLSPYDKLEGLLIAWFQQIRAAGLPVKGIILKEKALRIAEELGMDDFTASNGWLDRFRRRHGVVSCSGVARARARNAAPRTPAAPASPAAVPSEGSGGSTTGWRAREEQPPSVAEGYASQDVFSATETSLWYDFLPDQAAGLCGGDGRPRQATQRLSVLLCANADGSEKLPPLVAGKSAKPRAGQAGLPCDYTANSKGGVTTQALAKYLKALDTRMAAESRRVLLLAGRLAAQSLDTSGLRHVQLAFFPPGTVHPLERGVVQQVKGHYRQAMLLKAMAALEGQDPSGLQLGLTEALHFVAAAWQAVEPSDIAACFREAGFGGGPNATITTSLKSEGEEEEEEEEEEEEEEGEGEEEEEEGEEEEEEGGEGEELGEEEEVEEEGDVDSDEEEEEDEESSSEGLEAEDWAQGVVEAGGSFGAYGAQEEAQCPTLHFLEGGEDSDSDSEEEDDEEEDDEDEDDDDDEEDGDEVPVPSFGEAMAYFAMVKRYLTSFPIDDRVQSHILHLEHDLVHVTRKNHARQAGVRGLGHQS
Text: as §1

[39] = target: T11, Histones; test: AtheNA, Ab 25 ug/ml; remark: listed apart in the source
Text: as §1

[40] = target: T7, SSA; test: AtheNA, Ab 50 ug/ml; remark: listed apart in the source
Text: as §1

[41] = target: T8, Sm (Smith antigen); test: AtheNA, Ab 50 ug/ml; remark: listed apart in the source
Text: as §1

[42] = target: T9, RNP (ribonucleoprotein); test: AtheNA, Ab 50 ug/ml
Text: as §1

[43] = target: T13, Centromere B; test: AtheNA, Ab 50 ug/ml
Text: as §1

[44] = target: T11, Histones; test: AtheNA, Ab 50 ug/ml; remark: listed apart in the source
Text: as §1

[45] = target: T7, SSA; test: AtheNA, Ab 12.5 ug/ml; remark: listed apart in the source
Text: as §1

[46] = target: T8, Sm (Smith antigen); test: AtheNA, Ab 12.5 ug/ml; remark: listed apart in the source
Text: as §1

[47] = target: T9, RNP (ribonucleoprotein); test: AtheNA, Ab 12.5 ug/ml; remark: listed apart in the source
Text: as §1

[48] = target: T13, Centromere B; test: AtheNA, Ab 12.5 ug/ml
Text: as §1

[49] = target: T11, Histones; test: AtheNA, Ab 12.5 ug/ml; remark: listed apart in the source
Text: as §1

[50] = target: T7, SSA; test: AtheNA, Ab 6.25 ug/ml; remark: listed apart in the source
Text: as §1

[51] = target: T8, Sm (Smith antigen); test: AtheNA, Ab 6.25 ug/ml; remark: listed apart in the source
Text: as §1

[52] = target: T9, RNP (ribonucleoprotein); test: AtheNA, Ab 6.25 ug/ml; remark: listed apart in the source
Text: as §1

[53] = target: T13, Centromere B; test: AtheNA, Ab 6.25 ug/ml
Text: as §1

[54] = target: T11, Histones; test: AtheNA, Ab 6.25 ug/ml; remark: listed apart in the source
Text: as §1

[55] = target: Con S gp120; test: direct-binding ELISA (OD450), panel 'Con S gp120'
[56] = target: T4, CH505.TF mutant gp120 M6; test: direct-binding ELISA (OD450), panel 'CH505.TF gp120 M6'
[57] = target: CH505.TF gp120 delta371I; test: direct-binding ELISA (OD450), panel 'CH505.TF gp120 delta371I'

B1: CH236 (antibody, V domains shown)
VH: QVQLVQSGAAVKRPGASVTISCRASGYTFTTYYIHWVRQAPGQRLELMGMIDPSRGRTDYAQKFQGRVTMSRDTSTSTLYMELRSLRPDDTALYYCVRNVGTEGSLLHYDYWGQGTLVTVSS
VL: EIVLTQSPATLSVSPGERVTLSCRASQSVRNNLAWYRQKRGQAPRLLIYGASTRATGIPARFSGSGSGTEFTLTISSMQSEDFAVYYCQQYNNWWTFGQGTKVEIK
notes: also called CH236_4A/293i
LogAUC [1]: 6.89 | LogAUC [2]: 6.72 | LogAUC [3]: 6.23 | LogAUC [4]: 0.95 | LogAUC [5]: 3.51 | LogAUC [6]: 7.27 | LogAUC [7]: 6.07 | LogAUC [8]: 1.43 | LogAUC [9]: 1.54 | LogAUC [10]: 0 | LogAUC [11]: 0 | LogAUC [12]: 0 | LogAUC [13]: 6.31 | LogAUC [14]: 0 | LogAUC [15]: 0 | AtheNA signal [16]: 224 relative luminescence units | AtheNA signal [17]: 165 relative luminescence units | AtheNA signal [18]: 69 relative luminescence units | AtheNA signal [19]: 62 relative luminescence units | AtheNA signal [20]: 193 relative luminescence units | AtheNA signal [21]: 177 relative luminescence units | AtheNA signal [22]: 128 relative luminescence units | AtheNA signal [23]: 138 relative luminescence units | AtheNA signal [24]: 185 relative luminescence units | AtheNA signal [25]: 258 relative luminescence units | AtheNA signal [26]: 78 relative luminescence units | AtheNA signal [27]: 50 relative luminescence units | AtheNA signal [28]: 234 relative luminescence units | AtheNA signal [29]: 44 relative luminescence units | AtheNA signal [30]: 184 relative luminescence units | AtheNA signal [31]: 40 relative luminescence units | AtheNA signal [32]: 31 relative luminescence units | AtheNA signal [33]: 154 relative luminescence units | IC50 [34]: 82.2 µg/mL

B2: CH491 (antibody, V domains shown)
VH: QVQLVQSGAAVKRPGASVTISCRASGYTFTTYYIHWVRQAPGQGLELMGWINPRGGRTDYSYRFEDRVSMYRDTSMSIVYMDLRNLKSADTAVYYCVRNVGTSGSLLHYDFWGQGSLVTVSS
VL: EIVLTQSPATLSVSPGERVTLSCRASQSVRNNLAWYRQKRGQAPRLLIYGASTRATGIPARFSGSGSGTEFTLTISSMQSEDFAVYYCQQYNNWWTFGQGTKVEIK
notes: also called CH235.7; DH491
LogAUC [1]: 9.64 | LogAUC [2]: 9.35 | LogAUC [3]: 8.82 | LogAUC [4]: 3.89 | LogAUC [5]: 3.53 | LogAUC [6]: 10.6 | LogAUC [7]: 10.6 | LogAUC [8]: 6.75 | LogAUC [9]: 6.61 | LogAUC [10]: 0 | LogAUC [11]: 0 | LogAUC [12]: 0 | LogAUC [13]: 9.21 | LogAUC [14]: 0 | LogAUC [15]: 0 | AtheNA signal [35]: 44 | AtheNA signal [36]: 4 | AtheNA signal [37]: 30 | AtheNA signal [38]: 45 | AtheNA signal [39]: 44 | AtheNA signal [40]: 68 | AtheNA signal [41]: 6 | AtheNA signal [42]: 43 | AtheNA signal [43]: 54 | AtheNA signal [44]: 59 | AtheNA signal [45]: 28 | AtheNA signal [46]: 3 | AtheNA signal [47]: 24 | AtheNA signal [48]: 34 | AtheNA signal [49]: 34 | AtheNA signal [50]: 21 | AtheNA signal [51]: 4 | AtheNA signal [52]: 18 | AtheNA signal [53]: 26 | AtheNA signal [54]: 26 | EC50 (read off the curve) [55]: ~0.05 µg/mL | EC50 (read off the curve) [56]: ~0.2 µg/mL | EC50 (read off the curve) [57]: ~8 µg/mL

Source: US10450368 (DUKE UNIVERSITY, dated 2019)
